Target: human CCR5 (human, UniProt P51681 1-352)
Experiment: cell-based or functional assay

human CCR5, sequence (P51681 whole entry): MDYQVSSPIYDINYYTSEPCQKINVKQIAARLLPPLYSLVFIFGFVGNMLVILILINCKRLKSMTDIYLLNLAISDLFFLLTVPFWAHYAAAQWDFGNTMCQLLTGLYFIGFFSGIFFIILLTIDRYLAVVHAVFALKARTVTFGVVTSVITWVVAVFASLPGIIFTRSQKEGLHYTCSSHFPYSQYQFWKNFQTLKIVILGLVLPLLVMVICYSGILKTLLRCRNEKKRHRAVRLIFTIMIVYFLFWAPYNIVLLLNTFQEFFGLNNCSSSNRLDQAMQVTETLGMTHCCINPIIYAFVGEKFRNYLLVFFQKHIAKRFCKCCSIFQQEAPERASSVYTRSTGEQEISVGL

B1: BN-1000 (antibody, V domains shown)
VH: QVQLKQSGPGLVRPSQSLSITCTVSGFPLGIFGVHWVRQSPGKGLEWLGVIWKGGNTDYNAAFMSRLRITKDNSKSQVFFRMNSLQTDDTAIYYCAKVNLADAMDYWGQGTSVIVSS
VL: DIQMTQSPASLSASVGETVTITCRASGNIHGYLAWFQQKQGKSPQLLVYNTKTLAEGVPSRFSGSGSGTQFSLKINSLQPEDFGNYYCQHHYDLPRTFGGGTKLEIK
- IC50, antiviral assay in PBMC (HIV-1 NLBaL, p24 ELISA): 1.08 nM

From WO2010028797A1 (dated 2010)
